Experimental data from patent US20200399381A1 (I MAB BIOPHARMA US, published 2020).
Numbering of substitutions follows the chain as printed.

Key:
[1] = biological target: T1, human IFNAR-1 protein (form not stated) (human, UniProt P17181 28-436, limits assumed); test: ELISA on human IFNAR-1 protein
T1 construct: bispecific ELISA
T1 sequence (looked up): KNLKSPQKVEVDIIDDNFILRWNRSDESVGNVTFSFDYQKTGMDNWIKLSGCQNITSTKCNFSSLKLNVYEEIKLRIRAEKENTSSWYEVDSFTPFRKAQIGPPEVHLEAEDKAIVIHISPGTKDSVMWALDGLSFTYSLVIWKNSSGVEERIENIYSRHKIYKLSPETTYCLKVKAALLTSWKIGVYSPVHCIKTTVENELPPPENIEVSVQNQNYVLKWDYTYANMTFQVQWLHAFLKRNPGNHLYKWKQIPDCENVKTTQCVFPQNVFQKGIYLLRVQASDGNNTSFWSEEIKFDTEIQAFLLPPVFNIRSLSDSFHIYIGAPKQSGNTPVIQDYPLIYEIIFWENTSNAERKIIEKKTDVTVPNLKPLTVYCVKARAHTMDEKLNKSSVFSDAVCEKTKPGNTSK

human IFNAR-1 on cells = biological target: T2, human IFNAR-1 on cells (human, UniProt P17181 28-557); test: cell-based or functional assay
T2 sequence (looked up): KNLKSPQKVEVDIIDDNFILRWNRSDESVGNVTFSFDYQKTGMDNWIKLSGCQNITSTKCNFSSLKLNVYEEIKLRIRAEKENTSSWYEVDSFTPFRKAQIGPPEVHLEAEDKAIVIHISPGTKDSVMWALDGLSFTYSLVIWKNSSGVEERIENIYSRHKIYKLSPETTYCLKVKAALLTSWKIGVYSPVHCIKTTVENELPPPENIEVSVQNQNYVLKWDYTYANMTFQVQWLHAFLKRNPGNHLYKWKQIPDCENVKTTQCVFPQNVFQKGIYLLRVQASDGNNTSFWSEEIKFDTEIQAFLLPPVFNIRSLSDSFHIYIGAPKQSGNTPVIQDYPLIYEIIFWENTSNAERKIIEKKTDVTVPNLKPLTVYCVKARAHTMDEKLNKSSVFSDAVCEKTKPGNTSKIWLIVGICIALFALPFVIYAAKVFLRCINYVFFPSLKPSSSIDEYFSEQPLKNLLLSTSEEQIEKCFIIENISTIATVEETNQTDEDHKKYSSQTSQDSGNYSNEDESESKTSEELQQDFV

[2] = biological target: T3, hIFNAR-1(1aa-409aa) K278A (human, UniProt P17181 28-436); test: flow cytometry on alanine scan clone, normalised to WT
T3 construct: range 1-409
T3 sequence (looked up): T1 sequence (looked up) with K251A
Description: (§1) For each point, background fluorescence was subtracted from the raw data, which were then normalized to Fab reactivity with WT target protein. For each mutant clone, the mean binding value was plotted as a function of expression (represented by control reactivity).

[3] = biological target: T4, hIFNAR-1(1aa-409aa) Y275A (human, UniProt P17181 28-436); test: as above
T4 construct: range 1-409
T4 sequence (looked up): T1 sequence (looked up) with Y248A
Description: as §1

[4] = biological target: T5, hIFNAR-1(1aa-409aa) L274A (human, UniProt P17181 28-436); test: as above
T5 construct: range 1-409
T5 sequence (looked up): T1 sequence (looked up) with L247A
Description: as §1

[5] = biological target: T6, hIFNAR-1(1aa-409aa) H273A (human, UniProt P17181 28-436); test: as above
T6 construct: range 1-409
T6 sequence (looked up): T1 sequence (looked up) with H246A
Description: as §1

[6] = biological target: T7, hIFNAR-1(1aa-409aa) K276A (human, UniProt P17181 28-436); test: as above
T7 construct: range 1-409
T7 sequence (looked up): T1 sequence (looked up) with K249A
Description: as §1

B1: 8G11 chimeric antibody (antibody, V domains shown)
VH: EVQLQQSGAELVKPGASVKLSCTGFGFNIKDYYMHWVKQRAEQGLEWIGRIDPEDGETKYAPKFQGKATITADTSSNTAYLQVSSLTSEDTAVYYCARGGNFYVMDYWGQGTSVTVSS
VL: DIVMTQSQKFMSTSVGDRVSVTCKASQNVGTNVVWYQQKPGQSPKVLIYSASYRVSGVPDRFTGSGSGTDFTLIISNVQSEDLAEYFCQQKNNYPYTFGGGTKLEIK
notes: also called chimeric 8G11
EC50 (read off the curve) [1]: ~0.1 nM
EC50 (nM), IFNα2b-mediated anti-viral assay (Huh7-Con1b HCV replicon luciferase) (human IFNAR-1 on cells): 7.73 nM

B2: 8G11 Fab (Fab, V domains shown)
VH: B1 VH
VL: B1 VL
Binding Reactivity (% WT) [2]: 3.9 % WT
Binding Reactivity (% WT) [3]: 19.1 % WT
Binding Reactivity (% WT) [4]: 22.7 % WT
Binding Reactivity (% WT) [5]: 31.2 % WT
Binding Reactivity (% WT) [6]: 1.5 % WT

B3: Anifrolumab (antibody, V domains shown)
VH: EVQLVQSGAEVKKPGESLKISCKGSGYIFTNYWIAWVRQMPGKGLESMGIIYPGDSDIRYSPSFQGQVTISADKSITTAYLQWSSLKASDTAMYYCARHDIEGFDYWGRGTLVTVSS
VL: EIVLTQSPGTLSLSPGERATLSCRASQSVSSSFFAWYQQKPGQAPRLLIYGASSRATGIPDRLSGSGSGTDFTLTITRLEPEDFAVYYCQQYDSSAITFGQGTRLEIKR
Binding Reactivity (% WT) [2]: 105 % WT
Binding Reactivity (% WT) [3]: 146 % WT
Binding Reactivity (% WT) [4]: 106 % WT
Binding Reactivity (% WT) [5]: 88.1 % WT
Binding Reactivity (% WT) [6]: 99.4 % WT
